{"source": "patent US20230002798A1", "about": "“PROCESS FOR THE PREPARATION OF A FERMENTABLE SUGAR COMPOSITION AND THE FERMENTATION THEREOF” (WeissBioTech GmbH, priority 2019, published 2023)", "molecules": {"B1": {"name": "Gth: oligo-1,6-glucosidase of Parageobacillus thermoglucosidasius, amino acid sequence SEQ ID NO:2, expressed in Bacillus subtilis (protein, listed as Parageobacillus thermoglucosidasius)", "chain": "MERVWWKEAVVYQIYPRSFYDSNGDGIGDIRGIIAKLDYLKELGVDVVWLSPVYKSPNDDNGYDISDYRDIMDEFGTMADWKTMLEEMHKRGIKLVMDLVVNHTSDEHPWFIESRKSKDNPYRDYYIWRPGKNGKEPNNWESVFSGSAWEYDEMTGEYYLHLFSKKQPDLNWENPKVRREVYEMMKFWLDKGVDGFRMDVINMISKVPELPDGEPQSGKKYASGSRYYMNGPRVHEFLQEMNREVLSKYDIMTVGETPGVTPKEGILYTDPSRRELNMVFQFEHMDLDSGPGGKWDIRPWSLADLKKTMTKWQKELEGKGWNSLYLNNHDQPRAVSRFGDDGKYRVESAKMLATFLHMMQGTPYIYQGEEIGMTNVRFPSIEDYRDIETLNMYKERVEEYGEDPQEVMEKIYYKGRDNARTPMQWDDSENAGFTAGTPWIPVNPNYKEINVKAALEDPNSVFHYYKKLIQLRKQHDIIVYGTYDLILEDDPYIYAYTRTLGNEQLIVITNFSEKTPVFRLPDHIIYKTKELLISNYDVDEAEELKEIRLRPWEARVYKIRLP", "modifications": "WP_042386239.1 alpha-glucosidase"}, "B2": {"name": "Agl1: oligo-1,6-glucosidase of Bifidobacterium breve UCC2003, amino acid sequence SEQ ID NO:1, expressed in Bacillus subtilis (protein)", "chain": "MMTTFNRAIIPDAIRTNGATPNPWWSNAVVYQIYPRSFQDTNGDGFGDLKGITSRLDYLADLGVDVLWLSPVYKSPQDDNGYDISDYQDIDPLFGTLDDMDELLAEAHKRGLKVVMDLVVNHTSDEHAWFEASKNKDDEHADWYWWRPARPGTTPGEPGSEPNQWGSYFGGSAWEYCPERGEYYLHQFSKKQPDLNWENPAVRRAVYDMMNWWLDRGIDGFRMDVITLISKRTDANGRLPGEYGSELDDLPVGEEGYSNPNPFCADGPRQDEFLKEMRREVFAGREGFLTVGEAPGITPVRNEHITNPANGELDMLFLFDHVDFDCDGVKWKPLPLDLPGFKRIMAGYQTAVENVGWASLFTGNHDQPRVVSRWGDDSSEESRVRSAKALGLMLHMHRGTPYVYQGEELGMTNAHFTSLDQYRDLESLNAYRQRVEEAKVQSPESMLAGIAARGRDNSRTPMQWDGSAYAGFTAPDAATEPWISVNPNHAEINAAGEFDDPDSVYAFYKKLIALRHNSSIVAAGEWQLIDADDAHVYAFTRTLGNERLLVVVNLSGRTVDLPRESTELIAGGVTEPDIILSTYDAPHTVVSLANRELDPWEAAAVQL", "modifications": "Bifidobacterium breve UCC2003; ACM89182.1 alpha-glucosidase 1"}}, "key": {"[1]": {"experiment": "SSF of maltodextrins with added trehalose, 24 h (Example 1)", "parameters": "species or system Yeast (Deltaferm® AL-18)", "details": "SSF 24 h, maltodextrin + 20 g/L trehalose, enzyme 937.5 kU per ton", "procedure": "(§1) Quantification of ethanol yield Ethanol was quantified via HPLC. Samples were taken at the end of the SSF or during SSF at set time points. Samples were centrifuged for 1 min at 17,000 xg and sterile filtered (0.2 μm). The samples were frozen at −80° C. prior to measurements. Ethanol was determined with an Aminex 87C column (Bio-Rad Laboratories, Inc., US) on a Shimadzu HPLC system.\n(§2) For simultaneous saccharification and fermentation (abbreviated SSF), the oligo-1,6-glucosidases—either Agl1 or Gth—were used as crude Bacillus extract. Glucidex® Maltodextrin 12 (Roquette, FR) was dissolved in SSF-medium (5 g/L yeast extract, 5 g/L peptone, 1 g/L K2HIPO4, 0.5 g/L Mg2SO4 in 50 mM citrate buffer, pH 4.8) at 300 g/L. Panose, isomaltose, isomaltotriose, maltose, maltotriose, or trehalose was added at 20 g/L. As a positive control, 20 g/L glucose was added instead of the respective sugar. The SSF medium containing starch hydrolysate (maltodextrins) and sugars was sterile filtered (0.2 μm). Yeast (Deltaferm® AL-18, WeissBioTech GmbH, Ascheberg, Germany) was grown in YINaC medium (50 g/L dextrose, 5 g/L yeast extract, 5 g/L peptone, 1 g/L K2HPO4, 0.5 g/L Mg2SO4*7H2O, 2 g/L NH4Cl in 50 mM sodium citrate, pH 4.8) for 2 days at 37° C. and harvested by centrifugation for 15 min at 5100 rpm and 8° C. Pelleted yeast was added to the SSF-medium at a final concentration of 6 g/L. Glucoamylase (Deltazym® GA L-E5, WeissBioTech GmbH, Ascheberg, Germany) was added at 40 g per ton of dry starch equivalent. The enzyme product Agl1 or Gth was added up to a final concentration of 187.5 kU per ton of dry starch equivalent. For the SSF with trehalose, Agl1 or Gth was added at 937.5 kU per ton of dry starch equivalent. As a negative control, an SSF as described above was run without oligo-1,6-glucosidase/enzyme product. The SSF was performed at 30° C. without stirring or shaking for 24 h."}, "[2]": {"experiment": "SSF of maltodextrins with added maltose, 24 h (Example 1)", "parameters": "species or system Yeast (Deltaferm® AL-18)", "details": "SSF 24 h, maltodextrin + 20 g/L maltose, enzyme 187.5 kU per ton", "procedure": "as §1, §2"}, "[3]": {"experiment": "Industry-relevant SSF of maltodextrins with added panose, 72 h (Example 2)", "parameters": "species or system Yeast (Deltaferm® AL-18)", "details": "SSF 72 h, maltodextrin + 20 g/L panose, glucoamylase 400 g/t, enzyme 187.5 kU per ton", "procedure": "as §1\nFor the SSF, the enzyme product was used as crude Bacillus extract. Glucidex® Maltodextrin 12 was dissolved in SSF medium (5 g/L yeast extract, 5 g/L peptone, 1 g/L K2HIPO4, 0.5 g/L Mg2SO4 in 50 mM citrate buffer, pH 4.8) at 300 g/L. Panose was added at 20 g/L. As a positive control, 20 g/L glucose was added. The SSF medium containing starch and sugars was sterile filtered (0.2 μm). Yeast (Deltaferm® AL-18, WeissBioTech GmbH, Ascheberg, Germany) was grown in YINaC medium (50 g/L dextrose, 5 g/L yeast extract, 5 g/L peptone, 1 g/L K2HPO4, 0.5 g/L Mg2SO4*7H2O, 2 g/L NH4Cl in 50 mM sodium citrate, pH 4.8) for 2 days at 37° C. and harvested by centrifugation for 15 min at 5100 rpm and 8° C. Pelleted yeast was added to the SSF at a final concentration of 6 g/L. Glucoamylase (Deltazym® GA L-E5, WeissBioTech GmbH, Ascheberg, Germany) was added at 400 g per ton of dry starch equivalent. The enzyme product Agl1 or Gth was added to a final concentration of 187.5 kU per ton of dry starch equivalent. As a negative control, no oligo-1,6-glucosidase/enzyme product was added. The SSF was performed at 30° C. without stirring or shaking for 72 h."}, "[4]": {"experiment": "SSF of commercial liquefied starch, 72 h (Example 3)", "parameters": "species or system Yeast (Deltaferm® AL-18)", "details": "SSF 72 h, commercial liquefied starch 300 g/L, glucoamylase 200 g/t, enzyme 187.5 kU per ton", "procedure": "as §1\nResidual sugars were quantified via HPLC. Samples were taken at the end of the SSF or during SSF at set time points. Samples were centrifuged for 1 min at 17 000 xg and sterile filtered (0.2 μm). The samples were frozen at −80° C. prior to measurements. Residual sugars were determined with a Zorbax NH2 column (Agilent Technologies, Inc., US) on an Agilent 1200 HPLC system.\nLiquefied starch was analysed prior to use on a Zorbax NH2 column (Agilent Technologies, Inc., US) for analysis of mono-, di- and trisaccharide type and content, and on an Aminex 42A column (Bio-Rad Laboratories, Inc., US) for analysis of degree of polymerisation (DP) detecting DP1-DP6 content. IPLC was performed on a Shimadzu IPLC system.\nFor SSF, the enzyme product was used as crude Bacillus extract. Acidified liquefied starch (pH 2.0) from a commercial plant, containing no detectable amounts of panose, isomaltose, isomaltotriose or trehalose, was brought to pH 4.8. SSF medium components (5 g/L yeast extract, 5 g/L peptone, 1 g/L K2HIPO4, 0.5 g/L Mg2SO4 in 50 mM citrate buffer, pH 4.8) were added to liquefied starch (300 g/L). The SSF medium containing starch was sterile filtered (0.2 μm). Yeast (Deltaferm® AL-18, WeissBioTech GmbH, Ascheberg, Germany) was grown in YINaC medium (50 g/L dextrose, 5 g/L yeast extract, 5 g/L peptone, 1 g/L K2HPO4, 0.5 g/L Mg2SO4*7H2O, 2 g/L NH4Cl in 50 mM sodium citrate, pH 4.8) for 2 days at 37° C. and harvested by centrifugation for 15 min at 5100 rpm and 8° C. Pelleted yeast was added to the SSF at a final concentration of 6 g/L. Glucoamylase (Deltazym® GA L-E10, WeissBioTech GmbH, Ascheberg, Germany) was added at 200 g per ton of dry starch equivalent. The enzyme product Agl1 or Gth was added to a final concentration of 187.5 kU per ton of dry starch equivalent. As control, no oligo-1,6-glucosidase/enzyme product was added. The SSF was performed at 30° C. without stirring or shaking for 72 h."}, "[5]": {"experiment": "Temperature range of enzyme activity", "type": "biochemical", "details": "30° C.-80° C. investigated", "procedure": "The temperature range was investigated from 30° C.-80° C. by incubating the enzymes and measuring their activity at the respective temperature."}}, "data": [{"molecule": "B1", "values": [{"measurement": "ethanol concentration increase by % compared to the negative control", "setting": "[1]", "result": 31, "unit": "%"}, {"measurement": "ethanol concentration increase compared to the negative control", "setting": "[1]", "result": "0.26 percentage points (v/v)"}, {"measurement": "ethanol concentration increase by % compared to the negative control", "setting": "[2]", "result": 2.8, "unit": "%"}, {"measurement": "ethanol concentration increase compared to the negative control", "setting": "[2]", "result": "0.06 percentage points (v/v)"}, {"measurement": "ethanol concentration increase by % compared to the negative control", "setting": "[3]", "result": 15, "unit": "%"}, {"measurement": "ethanol concentration increase compared to the negative control", "setting": "[3]", "result": "1.77 percentage points (v/v)"}, {"measurement": "ethanol concentration increase by % compared to the negative control", "setting": "[4]", "result": 4, "unit": "%"}, {"measurement": "ethanol concentration increase compared to the negative control", "setting": "[4]", "result": "0.47 percentage points (v/v)"}, {"measurement": "temperature range", "setting": "[5]", "result": "30-70 °C"}]}, {"molecule": "B2", "values": [{"measurement": "ethanol concentration increase by % compared to the negative control", "setting": "[1]", "result": 226, "unit": "%"}, {"measurement": "ethanol concentration increase compared to the negative control", "setting": "[1]", "result": "1.86 percentage points (v/v)"}, {"measurement": "ethanol concentration increase by % compared to the negative control", "setting": "[2]", "result": 1.5, "unit": "%"}, {"measurement": "ethanol concentration increase compared to the negative control", "setting": "[2]", "result": "0.03 percentage points (v/v)"}, {"measurement": "ethanol concentration increase by % compared to the negative control", "setting": "[3]", "result": 8, "unit": "%"}, {"measurement": "ethanol concentration increase compared to the negative control", "setting": "[3]", "result": "1.16 percentage points (v/v)"}, {"measurement": "ethanol concentration increase by % compared to the negative control", "setting": "[4]", "result": 2, "unit": "%"}, {"measurement": "ethanol concentration increase compared to the negative control", "setting": "[4]", "result": "0.30 percentage points (v/v)"}, {"measurement": "temperature range", "setting": "[5]", "result": "30-50 °C"}]}]}
